The values that follow come from article PMC11937480 (Communications Biology, 2025).

This test has as its target T1, HA-ZNF449 (UniProt Q6P9G9 1-518).
T1 sequence (looked up): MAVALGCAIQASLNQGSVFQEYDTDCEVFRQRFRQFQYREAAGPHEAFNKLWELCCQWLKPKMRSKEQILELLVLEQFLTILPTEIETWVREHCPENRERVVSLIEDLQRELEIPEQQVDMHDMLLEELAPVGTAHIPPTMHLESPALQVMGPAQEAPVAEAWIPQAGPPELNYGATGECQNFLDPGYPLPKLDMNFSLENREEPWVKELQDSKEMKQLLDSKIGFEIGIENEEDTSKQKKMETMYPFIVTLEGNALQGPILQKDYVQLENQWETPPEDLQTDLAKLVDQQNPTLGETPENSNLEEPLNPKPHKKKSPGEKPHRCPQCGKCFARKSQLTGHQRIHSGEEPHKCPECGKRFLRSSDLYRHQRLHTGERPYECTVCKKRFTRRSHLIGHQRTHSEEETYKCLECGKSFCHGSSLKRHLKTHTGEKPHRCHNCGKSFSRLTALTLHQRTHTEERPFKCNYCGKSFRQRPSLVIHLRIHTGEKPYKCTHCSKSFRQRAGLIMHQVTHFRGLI
As to the kind of experiment: pull-down.

B1: GST-fused PTOV1 (125–283 aa) truncation (domain or fragment, UniProt Q86YD1 125-283, looked up)
chain: VNQGENLETDQWPQKLIMQLIPQQLLTTLGPLFRNSQLAQFHFTNRDCDSLKGLCRIMGNGFAGCMLFPHISPCEVRVLMLLYSSKKKIFMGLIPYDQSGFVSAIRQVITTRKQAVGPGGVNSGPVQIVNNKFLAWSGVMEWQEPRPEPNSRSKRWLPS
Take B1: the binding result was “binds”.
